The target of one experiment is ARHGEF2 (human) (UniProt Q92974). Nature of the experiment: co-IP with anti-FLAG, mass spectrometry; lysate of cells with C-FLAG B3GNT2.
Another experiment concerns the target CCT7 (human) (UniProt Q99832). The experiment is described as above.
The target of the next experiment is CTHRC1 (human) (UniProt Q96CG8). The experiment is described as above.
A further experiment addresses EPRS (human) (UniProt P07814). Described as above.
The target of a further experiment is HADHA (human) (UniProt P40939). Described as above.
Another experiment has as its target HSPD1 (human) (UniProt P10809). Described as above.
The target of the next experiment is MSN (human) (UniProt P26038). The description is as above.
Sequence of MSN (human) (P26038 2-577 limits assumed): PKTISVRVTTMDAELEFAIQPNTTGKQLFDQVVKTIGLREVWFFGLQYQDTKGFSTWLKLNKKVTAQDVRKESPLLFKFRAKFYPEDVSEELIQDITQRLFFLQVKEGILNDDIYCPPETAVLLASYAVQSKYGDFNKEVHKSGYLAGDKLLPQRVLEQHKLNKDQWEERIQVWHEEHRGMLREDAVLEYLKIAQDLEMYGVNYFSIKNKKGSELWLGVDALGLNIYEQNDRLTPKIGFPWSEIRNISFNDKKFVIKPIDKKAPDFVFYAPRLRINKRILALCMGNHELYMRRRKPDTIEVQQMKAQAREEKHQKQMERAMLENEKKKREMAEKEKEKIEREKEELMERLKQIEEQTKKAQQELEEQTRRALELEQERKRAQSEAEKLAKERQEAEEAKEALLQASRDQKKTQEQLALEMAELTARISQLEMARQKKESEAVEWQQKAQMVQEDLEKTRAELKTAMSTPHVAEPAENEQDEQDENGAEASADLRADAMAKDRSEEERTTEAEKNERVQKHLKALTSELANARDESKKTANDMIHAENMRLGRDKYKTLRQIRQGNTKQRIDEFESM
Another experiment addresses MYO1C (human) (UniProt O00159). The description is as above.
The target in the next experiment is NPM1 (human) (UniProt P06748). The experiment is described as above.
A further experiment concerns the target PIGR (human) (UniProt P01833). The description is as above.
A further experiment deals with PJA2 (human) (UniProt O43164). The experiment is described as above.
Sequence of PJA2 (human) (O43164 2-708 limits assumed): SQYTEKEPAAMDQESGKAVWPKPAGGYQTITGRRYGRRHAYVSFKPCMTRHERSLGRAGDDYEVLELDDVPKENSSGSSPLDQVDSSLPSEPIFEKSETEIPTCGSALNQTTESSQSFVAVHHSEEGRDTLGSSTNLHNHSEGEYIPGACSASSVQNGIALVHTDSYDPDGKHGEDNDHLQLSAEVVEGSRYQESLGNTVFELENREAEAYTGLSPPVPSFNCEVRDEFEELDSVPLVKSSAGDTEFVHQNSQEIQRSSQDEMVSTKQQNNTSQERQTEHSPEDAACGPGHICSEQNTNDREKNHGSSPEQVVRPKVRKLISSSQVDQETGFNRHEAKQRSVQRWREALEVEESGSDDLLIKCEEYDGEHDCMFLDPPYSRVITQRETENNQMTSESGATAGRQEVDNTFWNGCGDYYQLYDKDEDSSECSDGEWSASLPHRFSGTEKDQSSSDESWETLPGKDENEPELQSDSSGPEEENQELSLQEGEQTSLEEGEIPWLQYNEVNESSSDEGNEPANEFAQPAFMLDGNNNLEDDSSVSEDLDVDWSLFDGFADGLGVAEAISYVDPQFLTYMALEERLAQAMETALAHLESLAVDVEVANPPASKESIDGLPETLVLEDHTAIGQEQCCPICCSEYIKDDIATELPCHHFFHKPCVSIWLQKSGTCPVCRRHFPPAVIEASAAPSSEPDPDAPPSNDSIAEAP
In a further experiment the target is RARS (human) (UniProt P54136). The experiment is described as above.
A further experiment concerns the target RPL26 (human) (UniProt P61254). Described as above.
The next experiment has as its target RPL32 (human) (UniProt P62910). The experiment is described as above.
Another experiment has as its target RPL9 (human) (UniProt P32969). The description is as above.
The next experiment concerns the target RPS27 (human) (UniProt P42677). Described as above.
The target in a further experiment is RPS4X (human) (UniProt P62701). The description is as above.
In another experiment the target is RRP12 (human) (UniProt Q5JTH9). The experiment is described as above.
Sequence of RRP12 (human) (Q5JTH9 other isoform, or with tags, fused parts or gaps limits assumed): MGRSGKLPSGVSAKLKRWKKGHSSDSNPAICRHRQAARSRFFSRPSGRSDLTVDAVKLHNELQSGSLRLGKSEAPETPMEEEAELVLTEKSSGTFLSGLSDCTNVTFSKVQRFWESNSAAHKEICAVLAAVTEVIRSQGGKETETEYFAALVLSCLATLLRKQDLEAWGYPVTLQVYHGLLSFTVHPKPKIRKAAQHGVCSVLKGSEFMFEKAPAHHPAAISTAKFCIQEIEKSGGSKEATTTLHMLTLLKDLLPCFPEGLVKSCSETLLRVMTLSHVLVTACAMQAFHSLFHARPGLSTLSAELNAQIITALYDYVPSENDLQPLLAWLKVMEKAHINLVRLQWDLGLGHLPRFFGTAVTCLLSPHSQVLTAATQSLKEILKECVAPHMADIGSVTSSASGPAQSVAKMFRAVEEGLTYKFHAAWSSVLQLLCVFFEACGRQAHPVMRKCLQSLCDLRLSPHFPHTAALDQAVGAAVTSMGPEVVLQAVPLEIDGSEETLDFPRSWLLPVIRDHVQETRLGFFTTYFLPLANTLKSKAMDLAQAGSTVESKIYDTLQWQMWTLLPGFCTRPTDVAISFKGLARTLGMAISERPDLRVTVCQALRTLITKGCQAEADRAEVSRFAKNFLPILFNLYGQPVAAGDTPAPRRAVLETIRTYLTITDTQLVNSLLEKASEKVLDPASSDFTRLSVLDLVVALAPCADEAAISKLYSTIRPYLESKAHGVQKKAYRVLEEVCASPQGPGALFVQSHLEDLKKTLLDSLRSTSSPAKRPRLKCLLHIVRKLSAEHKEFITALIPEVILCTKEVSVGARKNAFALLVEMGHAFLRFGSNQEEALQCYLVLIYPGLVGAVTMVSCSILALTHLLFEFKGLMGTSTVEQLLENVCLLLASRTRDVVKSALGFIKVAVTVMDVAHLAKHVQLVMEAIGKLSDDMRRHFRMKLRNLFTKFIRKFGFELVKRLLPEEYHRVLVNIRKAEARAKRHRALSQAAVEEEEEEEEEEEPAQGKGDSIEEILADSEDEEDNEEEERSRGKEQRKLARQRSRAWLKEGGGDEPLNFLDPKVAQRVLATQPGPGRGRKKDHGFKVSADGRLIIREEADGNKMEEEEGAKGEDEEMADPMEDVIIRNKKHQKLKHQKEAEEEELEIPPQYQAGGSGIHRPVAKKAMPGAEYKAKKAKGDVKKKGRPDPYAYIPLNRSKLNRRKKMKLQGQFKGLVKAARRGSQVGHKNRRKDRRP
In another experiment the target is SDF4 (human) (UniProt Q9BRK5). Described as above.
In a further experiment the target is SEL1L (human) (UniProt Q9UBV2). Described as above.
Sequence of SEL1L (human) (Q9UBV2 22-794 limits assumed): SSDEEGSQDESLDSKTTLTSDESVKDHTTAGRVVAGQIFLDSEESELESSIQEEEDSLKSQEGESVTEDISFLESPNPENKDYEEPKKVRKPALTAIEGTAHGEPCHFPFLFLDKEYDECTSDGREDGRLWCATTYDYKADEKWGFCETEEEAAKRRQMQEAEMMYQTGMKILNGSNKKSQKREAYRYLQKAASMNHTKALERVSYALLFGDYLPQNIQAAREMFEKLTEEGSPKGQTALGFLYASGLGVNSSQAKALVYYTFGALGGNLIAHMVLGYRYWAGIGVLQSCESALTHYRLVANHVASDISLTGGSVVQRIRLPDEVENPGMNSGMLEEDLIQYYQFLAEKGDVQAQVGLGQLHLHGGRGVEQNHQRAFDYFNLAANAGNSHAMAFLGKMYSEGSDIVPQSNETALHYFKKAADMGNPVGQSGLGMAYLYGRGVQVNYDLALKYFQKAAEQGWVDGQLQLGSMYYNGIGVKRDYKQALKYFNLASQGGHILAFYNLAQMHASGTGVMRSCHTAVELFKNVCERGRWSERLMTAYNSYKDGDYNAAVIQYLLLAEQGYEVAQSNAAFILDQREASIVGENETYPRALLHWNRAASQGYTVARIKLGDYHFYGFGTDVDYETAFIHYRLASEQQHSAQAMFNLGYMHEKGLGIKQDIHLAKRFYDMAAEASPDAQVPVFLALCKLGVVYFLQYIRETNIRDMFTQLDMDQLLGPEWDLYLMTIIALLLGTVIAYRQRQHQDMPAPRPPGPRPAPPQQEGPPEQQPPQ
The target of a further experiment is SLC25A5 (human) (UniProt P05141). The experiment is described as above.
Another experiment concerns the target SPRR1A (human) (UniProt P35321). Described as above.
The target of another experiment is UGGT1 (human) (UniProt Q9NYU2). The experiment is described as above.
For a further experiment, the target named is G3BP1 (human) (UniProt Q13283). The experiment can be described thus: co-IP, IgG control, lysate of cells with C-FLAG B3GNT2; mass spectrometry.
The next experiment concerns the target T1, MOV10 (human) (UniProt Q9HCE1).
T1 sequence (looked up): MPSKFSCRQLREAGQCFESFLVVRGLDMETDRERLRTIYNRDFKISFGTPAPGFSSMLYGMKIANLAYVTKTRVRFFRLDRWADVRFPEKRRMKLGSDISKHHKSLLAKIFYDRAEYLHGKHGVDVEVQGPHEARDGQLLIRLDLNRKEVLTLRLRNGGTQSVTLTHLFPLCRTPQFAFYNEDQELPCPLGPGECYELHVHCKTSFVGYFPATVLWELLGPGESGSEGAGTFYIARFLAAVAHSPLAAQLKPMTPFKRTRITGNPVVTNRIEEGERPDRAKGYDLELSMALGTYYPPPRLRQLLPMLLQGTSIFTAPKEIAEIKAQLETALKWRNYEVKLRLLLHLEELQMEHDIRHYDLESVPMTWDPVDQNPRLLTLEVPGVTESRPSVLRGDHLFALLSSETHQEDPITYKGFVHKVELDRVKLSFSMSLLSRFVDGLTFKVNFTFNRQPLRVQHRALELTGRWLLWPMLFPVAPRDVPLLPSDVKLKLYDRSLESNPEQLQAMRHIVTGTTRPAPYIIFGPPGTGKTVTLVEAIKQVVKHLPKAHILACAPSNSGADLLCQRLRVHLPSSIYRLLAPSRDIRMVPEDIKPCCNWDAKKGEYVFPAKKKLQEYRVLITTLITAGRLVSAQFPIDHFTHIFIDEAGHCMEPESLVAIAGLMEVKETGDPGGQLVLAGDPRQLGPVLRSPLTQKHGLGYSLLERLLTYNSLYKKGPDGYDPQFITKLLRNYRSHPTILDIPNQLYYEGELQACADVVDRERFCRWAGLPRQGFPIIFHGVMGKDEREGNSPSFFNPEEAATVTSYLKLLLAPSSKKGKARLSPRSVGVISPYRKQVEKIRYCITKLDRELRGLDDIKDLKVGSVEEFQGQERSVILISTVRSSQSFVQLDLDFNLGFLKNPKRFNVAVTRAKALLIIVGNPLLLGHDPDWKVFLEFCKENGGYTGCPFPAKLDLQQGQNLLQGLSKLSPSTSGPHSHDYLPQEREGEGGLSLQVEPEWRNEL
The description is as above.

In the next experiment the target is UBAP2L (human) (UniProt Q14157). The description is as above.

Sequence of MYO1C (human) (O00159 other isoform, or with tags, fused parts or gaps limits assumed): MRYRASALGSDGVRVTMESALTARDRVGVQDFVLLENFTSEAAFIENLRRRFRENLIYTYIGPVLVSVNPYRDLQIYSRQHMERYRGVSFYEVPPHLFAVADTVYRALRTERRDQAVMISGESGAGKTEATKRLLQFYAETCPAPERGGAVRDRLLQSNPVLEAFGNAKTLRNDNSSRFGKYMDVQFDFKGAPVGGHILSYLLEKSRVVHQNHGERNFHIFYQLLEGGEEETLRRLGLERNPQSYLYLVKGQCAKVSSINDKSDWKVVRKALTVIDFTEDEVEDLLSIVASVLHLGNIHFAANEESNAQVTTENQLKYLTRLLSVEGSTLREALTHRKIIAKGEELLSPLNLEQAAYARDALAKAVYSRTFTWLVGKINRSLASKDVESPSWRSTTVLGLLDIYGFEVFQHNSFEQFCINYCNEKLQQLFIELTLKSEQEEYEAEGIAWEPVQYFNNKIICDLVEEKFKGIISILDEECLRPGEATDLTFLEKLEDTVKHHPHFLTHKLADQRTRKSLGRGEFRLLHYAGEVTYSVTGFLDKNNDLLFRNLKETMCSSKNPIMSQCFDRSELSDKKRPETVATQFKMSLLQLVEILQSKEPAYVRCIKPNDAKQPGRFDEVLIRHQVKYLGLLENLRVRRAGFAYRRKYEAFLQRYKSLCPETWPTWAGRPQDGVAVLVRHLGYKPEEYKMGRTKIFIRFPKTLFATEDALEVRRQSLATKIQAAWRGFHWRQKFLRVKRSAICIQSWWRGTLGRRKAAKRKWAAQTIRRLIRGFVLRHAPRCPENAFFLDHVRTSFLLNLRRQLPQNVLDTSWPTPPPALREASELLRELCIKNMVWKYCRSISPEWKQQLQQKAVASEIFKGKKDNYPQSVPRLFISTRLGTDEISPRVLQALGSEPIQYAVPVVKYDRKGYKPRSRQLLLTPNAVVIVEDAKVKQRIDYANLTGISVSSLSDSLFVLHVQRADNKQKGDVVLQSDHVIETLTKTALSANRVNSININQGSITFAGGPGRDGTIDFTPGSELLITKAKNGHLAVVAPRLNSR
Sequence of CTHRC1 (human) (Q96CG8 other isoform, or with tags, fused parts or gaps limits assumed): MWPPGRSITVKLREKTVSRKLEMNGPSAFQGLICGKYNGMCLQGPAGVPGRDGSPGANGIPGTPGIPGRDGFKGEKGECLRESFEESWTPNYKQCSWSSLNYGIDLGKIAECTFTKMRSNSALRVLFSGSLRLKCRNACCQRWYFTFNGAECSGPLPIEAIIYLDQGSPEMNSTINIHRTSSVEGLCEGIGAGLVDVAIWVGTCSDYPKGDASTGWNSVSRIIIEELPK
Sequence of CCT7 (human) (Q99832 45-543 limits assumed): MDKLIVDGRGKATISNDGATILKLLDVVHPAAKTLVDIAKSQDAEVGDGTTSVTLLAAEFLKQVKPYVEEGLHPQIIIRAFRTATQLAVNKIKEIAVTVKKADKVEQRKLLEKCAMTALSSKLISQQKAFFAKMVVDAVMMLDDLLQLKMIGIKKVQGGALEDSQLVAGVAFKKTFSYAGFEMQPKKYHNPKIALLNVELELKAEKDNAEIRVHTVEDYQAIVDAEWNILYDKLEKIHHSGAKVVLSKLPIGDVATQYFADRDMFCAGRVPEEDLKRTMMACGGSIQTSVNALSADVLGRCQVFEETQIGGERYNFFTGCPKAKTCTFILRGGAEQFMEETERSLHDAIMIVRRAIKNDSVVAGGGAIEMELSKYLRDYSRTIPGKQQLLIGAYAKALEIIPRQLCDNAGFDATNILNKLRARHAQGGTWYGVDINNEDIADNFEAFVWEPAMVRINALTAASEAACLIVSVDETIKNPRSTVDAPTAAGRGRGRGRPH

For “C-terminal FLAG tagged B3GNT2 (from UniProt Q9NY97 1-397) (enzyme)”, the co-IP mass spectrometry count with ARHGEF2 (human) is 2; in the experiment with CCT7 (human) it was 2; with CTHRC1 (human) it was 2; with EPRS (human) it was 4; in the experiment with HADHA (human) it was 2; with HSPD1 (human) it was 6. The co-IP mass spectrometry count with MSN (human) worked out at 4; with MYO1C (human) it was 3; with NPM1 (human) it was 8; with PIGR (human), 5; with PJA2 (human), 2; in the experiment with RARS (human), 2. Further, the co-IP mass spectrometry count is 12 with RPL26 (human); 7 with RPL32 (human); 7 with RPL9 (human); 6 in the experiment with RPS27 (human); 23 in the experiment with RPS4X (human); 2 in the experiment with RRP12 (human). The co-IP mass spectrometry count with SDF4 (human) turned out to be 7; with SEL1L (human), 5; with SLC25A5 (human) it was 30; with SPRR1A (human), 3; with UGGT1 (human), 5.

As to “IgG control (Millipore Sigma 12-371) (antibody)”, the co-IP mass spectrometry count in the experiment with G3BP1 (human) was 25; with MOV10 (human), 3; with UBAP2L (human), 15.

The values are drawn from patent US20240261333A1, “NOVEL TARGETS FOR ENHANCING ANTI-TUMOR IMMUNITY” (THE BROAD INSTITUTE, INC., priority 2021, published 2024).
